Measurements taken from article PMC5586147 (Nature, 2017).

Target: human pro-TGF-β1 (C4S, R249A furin-site mutant, N107Q, N147Q), purified (human)
Assay: crystal structure

B1: integrin αVβ6 head (three-domain fragment: αV β-propeller and thigh domains, β6 βI domain) (complex)
chain 1: FNLDVDSPAEYSGPEGSYFGFAVDFFVPSASSRMFLLVGAPKANTTQPGIVEGGQVLKCDWSSTRRCQPIEFDATGNRDYAKDDPLEFKSHQWFGASVRSKQDKILACAPLYHWRTEMKQEREPVGTCFLQDGTKTVEYAPCRSQDIDADGQGFCQGGFSIDFTKADRVLLGGPGSFYWQGQLISDQVAEIVSKYDPNVYSIKYNNQLATRTAQAIFDDSYLGYSVAVGDFNGDGIDDFVSGVPRAARTLGMVYIYDGKNMSSLYNFTGEQMAAYFGFSVAATDINGDDYADVFIGAPLFMDRGSDGKLQEVGQVSVSLQRASGDFQTTKLNGFEVFARFGSAIAPLGDLDQDGFNDIAIAAPYGGEDKKGIVYIFNGRSTGLNAVPSQILEGQWAARSGCPPSFGYSMKGATDIDKNGYPDLIVGAFGVDRAILYRARPVITVNAGLEVYPSILNQDNKTCSLPGTALKVSCFNVRFCLKADGKGVLPRKLNFQVELLLDKLKQKGAIRRALFLYSRSPSHSKNMTISRGGLMQCEELIAYLRDESEFRDKLTPITIFMEYRLDYRTAADTTGLQPILNQFTPANISRQAHILLD
chain 2: TEDYPVDLYYLMDLSASMDDDLNTIKELGSRLSKEMSKLTSNFRLGFGSFVEKPVSPFVKTTPEEIANPCSSIPYFCLPTFGFKHILPLTNDAERFNEIVKNQKISANIDTPEGGFDAIMQAAVCKEKIGWRNDSLHLLVFVSDADSHFGMDSKLAGIVCPNDGLCHLDSKNEYSMSTVLEYPTIGQLIDKLVQNNVLLIFAVTQEQVHLYENYAKLIPGATVGLLQKDSGNILQLIISAYEELRSEVELE
  stoichiometry N: 1 αVβ6 head per pro-TGF-β1 dimer
